Data as given in patent US7445940.

Molecular target: human endoglin (human) (UniProt P17813)
Experiment: cell-based or functional assay

Sequence of UniProt P17813 (P17813 26-658): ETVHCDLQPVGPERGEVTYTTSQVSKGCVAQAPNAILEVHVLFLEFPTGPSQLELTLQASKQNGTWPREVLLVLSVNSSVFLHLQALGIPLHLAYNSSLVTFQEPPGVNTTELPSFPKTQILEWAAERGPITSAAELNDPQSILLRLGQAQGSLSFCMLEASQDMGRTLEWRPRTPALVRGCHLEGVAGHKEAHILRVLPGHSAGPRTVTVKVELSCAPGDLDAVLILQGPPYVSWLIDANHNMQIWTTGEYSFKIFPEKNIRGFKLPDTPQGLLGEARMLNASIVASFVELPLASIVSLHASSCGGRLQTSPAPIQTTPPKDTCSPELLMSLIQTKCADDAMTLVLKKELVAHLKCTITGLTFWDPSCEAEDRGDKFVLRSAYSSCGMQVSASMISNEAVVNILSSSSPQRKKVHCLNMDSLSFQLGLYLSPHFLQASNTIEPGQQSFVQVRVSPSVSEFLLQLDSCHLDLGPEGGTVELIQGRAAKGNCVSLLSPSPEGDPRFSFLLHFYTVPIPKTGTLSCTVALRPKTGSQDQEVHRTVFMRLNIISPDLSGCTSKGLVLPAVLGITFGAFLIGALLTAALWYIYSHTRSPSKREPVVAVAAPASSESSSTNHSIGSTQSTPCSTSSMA

EVT outgrowth and migration (EVT outgrowths/villous tip), 24 h after addition (day 2 of culture) (EVT outgrowths/villous tip): 2.03 | concentration of maximal stimulation of EVT outgrowth: 1 µg/mL | fibronectin (FN) synthesis by villous explants, fold increase relative to control: 8 fold
Substance: Murine monoclonal antibody (MAb) 44G4 specific for human endoglin
